Where “and” joins values, the source holds several entries; their conditions need not be identical. Equal values may be shown once.
B1: Guanyl-specific ribonuclease Sa wild type, P05798 (protein)
chain: DVSGTVCLSALPPEATDTLNLIASDGPFPYSQDGVVFQNRESVLPTQSYGYYHEYTVITPGARTRGTRRIITGEATQEDYYTGDHYATFSLIDQTC
B2: Variable large protein wild type, O06878 (protein)
chain: MKKISSAILLTTFFVFINCKSQVADKDDPTNKFYQSVIQLGNGFLDVFTSFGGLVAEAFGFKSDPKKSDVKTYFTTVAAKLEKTKTDLNSLPKEKSDISSTTGKPDSTGSVGTAVEGAIKEVSELLDKLVKAVKTAEGASSGTAAIGEVVADADAAKVADKASVKGIAKGIKEIVEAAGGSEKLKAVAAAKGENNKGAGKLFGKAGAAAHGDSEAASKAAGAVSAVSGEQILSAIVTAADAAEQDGKKPEEAKNPIAAAIGDKDGGAEFGQDEMKKDDQIAAAIALRGMAKDGKFAVKDGEKEKAEGAIKGAAESAVRKVLGAITGLIGDAVSSGLRKVGDSVKAASKETPPALNK

Details: Kitasatospora aureofaciens; pH 3; 25 °C; Urea; CD; Glycine 30 mM; whole UniProt chain shown
For B1, the denaturant m value was 1.63 kcal/mol/M, the “denaturant midpoint (higher = more stable)” value (“denaturant midpoint” for short) was 1.6 M and the unfolding free energy was 2.6 kcal/mol.

Same assay, conditions: Kitasatospora aureofaciens; pH 7; 25 °C; Urea; CD; MOPS 30 mM; whole UniProt chain shown
With B1 the denaturant m value was 1 kcal/mol/M and 0.94 kcal/mol/M, the “denaturant midpoint” value was 6.4 M and 6.45 M and the unfolding free energy was 6.4 kcal/mol and 6.1 kcal/mol.

Same assay, conditions: Borreliella burgdorferi; pH 7; 25 °C; Urea; CD; MOPS 30 mM; whole UniProt chain shown
In the case of B2, the denaturant m value is reported as 3.86 kcal/mol/M, the “denaturant midpoint” value is reported as 1.19 M and the unfolding free energy is reported as 4.6 kcal/mol.

Reference: FireProtDB (doi:10.1002/pro.370)
